The data set relates to tet operator sequence. Nature of the data set: β-galactosidase activity of a tetracycline-regulated promoter in transformed E. coli with revTetR, in the presence and absence of anhydrotetracycline (atc). Type of data set: cell-based, Escherichia coli. The following applies: for β-Galactosidase Activity, Cultured Without ATC: RevTetR isolate cultured in the absence of anhydrotetracycline (ATC); for β-Galactosidase Activity, Cultured With ATC: RevTetR isolate cultured in the presence of anhydrotetracycline (ATC). Here is the method:
The relative activity of revTetR repressors was determined at 28° C. and 37° C. for each clone by measuring β-galactosidase activity of a tetracycline-regulated promoter in transformed Escherichia coli in the presence and absence of the tetracycline analog, anhydrotetracycline (atc). The relative β-galactosidase activity was measured in standard Miller units and is presented as the percent of maximal expression as measured in the absence of Tet repressor. […] With respect to each mutant, as well as the wild-type controls, FIG. 2 provides two horizontal bars; the upper horizontal bar represents the level of β-galactosidase activity in the absence of anhydrotetracycline (−atc) while the lower horizontal bar represents the level of β-galactosidase activity in the presence of anhydrotetracycline (+atc).
The pool of mutated Tet repressors was cloned into plasmid pWH1411 (Baumeister et al., 1992, Proteins: Struct. Funct. Genet. 14: 168-77), which carries a TetR(B) gene, to provide a TetR(BD) chimera that included, as the amino-terminal portion, amino acid residues 1 to 50 of the TetR(B) gene and, as the carboxyl-terminal portion, amino acid residues 51 to 208 of the TetR(D) gene. The resulting plasmid pool was screened in a genetic assay which positively selects for a functional interaction between a Tet repressor and its cognate operator using E. coli strain WH207(λWH25) (the construction of this strain is described in detail in Wissmann et al., (1991) Genetics 128: 225-32). In this E. coli strain, tet operators direct the expression of divergently arranged β-galactosidase (lacZ) and Lac repressor (lacI) genes and the lac regulatory region directs the expression of a galactokinase (galK) gene on plasmid pWH414. Binding of Tet repressors to tet operators turns off transcription of the lacI and lacZ genes. The absence of Lac repressor allows for expression of the galK gene, which enables the E. coli strain to use galactose as a sole carbon source, which serves as one marker. The lacZ^− phenotype serves as a second marker. Thus, bacteria containing Tet repressors which bind to tet operators, have a Gal^+, lacZ^− phenotype. Bacteria containing wild-type Tet repressors have a Gal^+, lacZ^− phenotype in the absence of tetracycline. Modified “reverse” Tet repressors (revTetR) were selected based upon a Gal^+, lacZ^− phenotype in the presence of tetracycline.
The ability of each revTetR clone to bind to its cognate tet operator sequence and regulate transcription in a prokaryotic organism, Escherichia coli, in the presence and absence of a tetracycline analog (anhydrotetracycline, atc) was determined (Table 3, FIG. 2). The relative ratios of non-repressed to repressed levels of transcription for the 15 clones range from about 1.4-fold to about 50-fold at 28° C. and from about 1.3-fold to 40-fold at 37° C. For example, clone 4b comprising an amino acid substitution of glutamic acid for glycine at position 96 (e.g., SEQ ID NO. 24) repressed transcription 19-fold at 37° C. but to a less extent at 28° C. (5.7-fold, Table 3). Furthermore, clones 14, 5a and 7 comprising the arginine for glycine substitution at position 96 and further comprising a substitution or substitutions of serine for threonine at position 103 and valine for glutamic acid at position 114; leucine for proline at position 159; or glutamine to histidine at position 188, respectively, have pronouncedly different activities.
wherein each underlined base was present in approximately 85% of the oligonucleotides, while the remaining approximately 15% of the oligonucleotides contained one of the other three, non-wild type bases at that position. Similar mutagenic, partially randomized oligonucleotides were prepared for mutagenesis of the coding regions for amino acids 14-25 and 93-102. It was predicted that, according to a binomial distribution, each oligonucleotide would contain three to four mutations. […]

Changes are numbered by the printed parent chain. In names and notes the source's numbering stands.

B1: TetRrevAD2/13: revTetR(BD) E19D V20E E23K V57L I59N L60F A61A (protein)
chain: MSRLDKSKVINSALELLNDEGIKGLTTRKLAQKLGVEQPTLYWHVKNKRALLDALALENFARHHDYSLPAAGESWQSFLRNNAMSFRRALLRYRDGAKVHLGTRPDEKQYDTVETQLRFMTENGFSLRDGLYAISAVSHFTLGAVLEQQEHTAALTDRPAAPDENLPPLLREALQIMDSDDGEQAFLHGLESLIRGFEVQLTALLQIV
modifications: Modified tetracycline repressor
notes: revTetR(BD) E19D V20E E23K V57L I59N L60F A61A
For B1, the “β-Galactosidase Activity, Cultured Without ATC” value worked out at 71.1255 and the “β-Galactosidase Activity, Cultured With ATC” value is given as 1.3355.

B2: TetRrevAF2/7: revTetR(BD) Y93C D95E A97T (protein)
chain: B1 chain with D19E, E20V, K23E, L57V, N59I, F60L, Y93C, D95E, A97T
modifications: Modified tetracycline repressor
notes: revTetR(BD) Y93C D95E A97T
In the case of B2, the “β-Galactosidase Activity, Cultured Without ATC” value came out at 70.3163 and the “β-Galactosidase Activity, Cultured With ATC” value stood at 2.8977.

B3: TetRrevAtc4-10: revTetR(BD) I59N L60F A61G (protein)
chain: B1 chain with D19E, E20V, K23E, L57V, A61G
modifications: Modified tetracycline repressor
notes: revTetR(BD) I59N L60F A61G
Turning to B3, the “β-Galactosidase Activity, Cultured Without ATC” value turned out to be 69.401 and the “β-Galactosidase Activity, Cultured With ATC” value came to 11.275.

B4: TetRrevAtc4-11: revTetR(BD) L55L A56P R62S (protein)
chain: B1 chain with D19E, E20V, K23E, A56P, L57V, N59I, F60L, R62S
modifications: Modified tetracycline repressor
notes: revTetR(BD) L55L A56P R62S
With B4, the “β-Galactosidase Activity, Cultured Without ATC” value is reported as 103.132 and the “β-Galactosidase Activity, Cultured With ATC” value came to 17.479.

B5: TetRrevAD3/6: revTetR(BD) V20G A56P I59L R62R (protein)
chain: B1 chain with D19E, E20G, K23E, A56P, L57V, N59L, F60L
modifications: Modified tetracycline repressor
notes: revTetR(BD) V20G A56P I59L R62R
Consider B5, for which the “β-Galactosidase Activity, Cultured Without ATC” value is given as 93.0552 and the “β-Galactosidase Activity, Cultured With ATC” value is 1.6494.

B6: TetRrevAF7/2: revTetR(BD) L14V E15V E23D K48K G96L G102A (protein)
chain: B1 chain with L14V, E15V, D19E, E20V, K23D, L57V, N59I, F60L, G96L, G102A
modifications: Modified tetracycline repressor
notes: revTetR(BD) L14V E15V E23D K48K G96L G102A
As to B6, the “β-Galactosidase Activity, Cultured Without ATC” value was 58.8637 and the “β-Galactosidase Activity, Cultured With ATC” value is reported as 3.7321.

B7: TetRrevAF2/15: revTetR(BD) V20G I22N R49Q A50T (protein)
chain: B1 chain with D19E, E20G, I22N, K23E, R49Q, A50T, L57V, N59I, F60L
modifications: Modified tetracycline repressor
notes: revTetR(BD) V20G I22N R49Q A50T
B7: the “β-Galactosidase Activity, Cultured Without ATC” value turned out to be 82.5755 and the “β-Galactosidase Activity, Cultured With ATC” value is recorded as 2.828.

B8: TetRrevAD3/2: revTetR(BD) A56P E58H A61A H63Y (protein)
chain: B1 chain with D19E, E20V, K23E, A56P, L57V, E58H, N59I, F60L, H63Y
modifications: Modified tetracycline repressor
notes: revTetR(BD) A56P E58H A61A H63Y
With B8, the “β-Galactosidase Activity, Cultured Without ATC” value came out at 60.3284 and the “β-Galactosidase Activity, Cultured With ATC” value turned out to be 3.5891.

B9: TetRrevAF3/5: revTetR(BD) V20F G21R R49S (protein)
chain: B1 chain with D19E, E20F, G21R, K23E, R49S, A50T, L57V, N59I, F60L
modifications: Modified tetracycline repressor
notes: revTetR(BD) V20F G21R R49S
On to B9, for which the “β-Galactosidase Activity, Cultured Without ATC” value amounted to 101.824 and the “β-Galactosidase Activity, Cultured With ATC” value stood at 4.696.

B10: TetRrevAD3/5: revTetR(BD) L17L N18K E19V I22T 53Y A54S (protein)
chain: B1 chain with N18K, D19V, E20V, I22T, K23E, D53Y, A54S, L57V, N59I, F60L
modifications: Modified tetracycline repressor
notes: revTetR(BD) L17L N18K E19V I22T 53Y A54S
As for B10, the “β-Galactosidase Activity, Cultured Without ATC” value turned out to be 89.8129 and the “β-Galactosidase Activity, Cultured With ATC” value worked out at 1.1481.

B11: TetRrevAF2/14: revTetR(BD) L14L E15A L16L L17V N18N; V20V G96V (protein)
chain: B1 chain with E15A, L17V, D19E, E20V, K23E, L57V, N59I, F60L, G96V
modifications: Modified tetracycline repressor
notes: revTetR(BD) L14L E15A L16L L17V N18N; V20V G96V
With B11, the “β-Galactosidase Activity, Cultured Without ATC” value is 90.5688 and the “β-Galactosidase Activity, Cultured With ATC” value stood at 1.239.

B12: TetRrevAF1/5: revTetR(BD) L14V G24G Y93D R94G D95G (protein)
chain: B1 chain with L14V, D19E, E20V, K23E, L57V, N59I, F60L, Y93D, R94G, D95G
modifications: Modified tetracycline repressor
notes: revTetR(BD) L14V G24G Y93D R94G D95G
B12: the “β-Galactosidase Activity, Cultured Without ATC” value is 102.015 and the “β-Galactosidase Activity, Cultured With ATC” value was 1.1988.

B13: TetRrevAD2/2: revTetR(BD) L14I G21R A56V (protein)
chain: B1 chain with L14I, D19E, E20V, G21R, K23E, A56V, L57V, N59I, F60L
modifications: Modified tetracycline repressor
notes: revTetR(BD) L14I G21R A56V
Regarding B13, the “β-Galactosidase Activity, Cultured Without ATC” value stood at 94.968 and the “β-Galactosidase Activity, Cultured With ATC” value is reported as 5.2312.

B14: TetRrevAD3/8: revTetR(BD) L16L A56A V57E E58L I59N L60A (protein)
chain: B1 chain with D19E, E20V, K23E, L57E, E58L, F60V
modifications: Modified tetracycline repressor
notes: revTetR(BD) L16L A56A V57E E58L I59N L60A
B14: the “β-Galactosidase Activity, Cultured Without ATC” value amounted to 65.0174 and the “β-Galactosidase Activity, Cultured With ATC” value is 1.9046.

B15: TetRrevAD3/7: revTetR(BD) L17M E19D L52L D53Y A54A A56E (protein)
chain: B1 chain with L17M, E20V, K23E, D53Y, A56E, L57V, N59I, F60L
modifications: Modified tetracycline repressor
notes: revTetR(BD) L17M E19D L52L D53Y A54A A56E
For B15, the “β-Galactosidase Activity, Cultured Without ATC” value was 73.4537 and the “β-Galactosidase Activity, Cultured With ATC” value was found to be 2.4531.

B16: TetRrevAF1/3: revTetR(BD) G24G D95A G96R (protein)
chain: B1 chain with D19E, E20V, K23E, L57V, N59I, F60L, D95A, G96R
modifications: Modified tetracycline repressor
notes: revTetR(BD) G24G D95A G96R
B16: the “β-Galactosidase Activity, Cultured Without ATC” value is 59.773 and the “β-Galactosidase Activity, Cultured With ATC” value is listed as 1.2536.

B17: TetRrevAF7/1: revTetR(BD) Y93C G96R K98N (protein)
chain: B1 chain with D19E, E20V, K23E, L57V, N59I, F60L, Y93C, G96R, K98N
modifications: Modified tetracycline repressor
notes: revTetR(BD) Y93C G96R K98N
Consider B17, for which the “β-Galactosidase Activity, Cultured Without ATC” value was found to be 89.3536 and the “β-Galactosidase Activity, Cultured With ATC” value amounted to 1.3792.

B18: TetRrevAF1/4: revTetR(BD) N18K D95V G96V A97V (protein)
chain: B1 chain with N18K, D19E, E20V, K23E, L57V, N59I, F60L, D95V, G96V, A97V
modifications: Modified tetracycline repressor
notes: revTetR(BD) N18K D95V G96V A97V
B18: the “β-Galactosidase Activity, Cultured Without ATC” value is reported as 81.2613 and the “β-Galactosidase Activity, Cultured With ATC” value was 13.459.

B19: TetRrevAF6/12: revTetR(BD) L14F E15E G96V K98E V99L L101P (protein)
chain: MSRLDKSKVINSAFELLNEVGIEGLTTRKLAQKLGVEQPTLYWHVKNKRALLDALAVEILARHHDYSLPAAGESWQSFLRNNAMSFRRALLRYRDVAELHPGTRPDEKQYDTVETQLRFMTENGFSLRDGLYAISAVSHFTLGAVLEQQEHTAALTDRPAAPDENLPPLLREALQIMDSDDGEQAFLHGLESLIRGFEVQLTALLQIV
modifications: Modified tetracycline repressor
notes: revTetR(BD) L14F E15E G96V K98E V99L L101P
As for B19, the “β-Galactosidase Activity, Cultured Without ATC” value is reported as 82.6734 and the “β-Galactosidase Activity, Cultured With ATC” value worked out at 1.3259.

B20: TetRrevAF2/16: revTetR(BD) E19V Y93C D95Y A97T K98N V99L L101L (protein)
chain: B19 chain with F14L, E19V, Y93C, D95Y, V96G, A97T, E98N, P101L
modifications: Modified tetracycline repressor
notes: revTetR(BD) E19V Y93C D95Y A97T K98N V99L L101L
B20: the “β-Galactosidase Activity, Cultured Without ATC” value was found to be 90.6438 and the “β-Galactosidase Activity, Cultured With ATC” value is listed as 2.622.

(Values after patent publication US20030186281A1, “Modified tetracycline repressor protein compositions and methods of use” (priority 2001, published 2003).)
